Laboratory results reported in patent publication US20170275666A1, “Methods for Preparing Rebaudioside I and Uses” (The Coca-Cola Company, priority 2014, published 2017).

B1: UGT76G1var83: UGT76G1 variant, mutations I43V_Q342E_S357N_S375R_L379G (protein, UniProt Q6VAB4 1-458, looked up, variant I43V Q342E S357N S375R L379G)
UDP-glycosyltransferase 76G1: MENKTETTVRRRRRIILFPVPFQGHINPILQLANVLYSKGFSVTIFHTNFNKPKTSNYPHFTFRFILDNDPQDERISNLPTHGPLAGMRIPIINEHGADELRRELELLMLASEEDEEVSCLITDALWYFAQSVADSLNLRRLVLMTSSLFNFHAHVSLPQFDELGYLDPDDKTRLEEQASGFPMLKVKDIKSAYSNWQILKEILGKMIKQTKASSGVIWNSFKELEESELETVIREIPAPSFLIPLPKHLTASSSSLLDHDRTVFQWLDQQPPSSVLYVSFGSTSEVDEKDFLEIARGLVDSKQSFLWVVRPGFVKGSTWVEPLPDGFLGERGRIVKWVPQEEVLAHGAIGAFWTHNGWNSTLESVCEGVPMIFRDFGGDQPLNARYMSDVLKVGVYLENGWERGEIANAIRRVMVDEEGEYIRQNARVLKQKADVSLMKGGSSYESLESLVSYISSL
B2: UGT76G1var88: UGT76G1 variant, mutations A239V_T284I_V310I_Q342K_L379A (protein, UniProt Q6VAB4 1-458, looked up, variant A239V T284I V310I Q342K L379A)
UDP-glycosyltransferase 76G1: MENKTETTVRRRRRIILFPVPFQGHINPILQLANVLYSKGFSITIFHTNFNKPKTSNYPHFTFRFILDNDPQDERISNLPTHGPLAGMRIPIINEHGADELRRELELLMLASEEDEEVSCLITDALWYFAQSVADSLNLRRLVLMTSSLFNFHAHVSLPQFDELGYLDPDDKTRLEEQASGFPMLKVKDIKSAYSNWQILKEILGKMIKQTKASSGVIWNSFKELEESELETVIREIPVPSFLIPLPKHLTASSSSLLDHDRTVFQWLDQQPPSSVLYVSFGSISEVDEKDFLEIARGLVDSKQSFLWVIRPGFVKGSTWVEPLPDGFLGERGRIVKWVPQKEVLAHGAIGAFWTHSGWNSTLESVCEGVPMIFSDFGADQPLNARYMSDVLKVGVYLENGWERGEIANAIRRVMVDEEGEYIRQNARVLKQKADVSLMKGGSSYESLESLVSYISSL
B3: UGT76G1var6: UGT76G1 variant, mutations Q266S_S357N_I373L (protein, UniProt Q6VAB4 1-458, looked up, variant Q266S S357N I373L)
UDP-glycosyltransferase 76G1: MENKTETTVRRRRRIILFPVPFQGHINPILQLANVLYSKGFSITIFHTNFNKPKTSNYPHFTFRFILDNDPQDERISNLPTHGPLAGMRIPIINEHGADELRRELELLMLASEEDEEVSCLITDALWYFAQSVADSLNLRRLVLMTSSLFNFHAHVSLPQFDELGYLDPDDKTRLEEQASGFPMLKVKDIKSAYSNWQILKEILGKMIKQTKASSGVIWNSFKELEESELETVIREIPAPSFLIPLPKHLTASSSSLLDHDRTVFSWLDQQPPSSVLYVSFGSTSEVDEKDFLEIARGLVDSKQSFLWVVRPGFVKGSTWVEPLPDGFLGERGRIVKWVPQQEVLAHGAIGAFWTHNGWNSTLESVCEGVPMLFSDFGLDQPLNARYMSDVLKVGVYLENGWERGEIANAIRRVMVDEEGEYIRQNARVLKQKADVSLMKGGSSYESLESLVSYISSL
B4: UGT76G1var85: UGT76G1 variant, mutations T284L_G348P_F377C_P382M_N409R (protein, UniProt Q6VAB4 1-458, looked up, variant T284L G348P F377C P382M N409R)
UDP-glycosyltransferase 76G1: MENKTETTVRRRRRIILFPVPFQGHINPILQLANVLYSKGFSITIFHTNFNKPKTSNYPHFTFRFILDNDPQDERISNLPTHGPLAGMRIPIINEHGADELRRELELLMLASEEDEEVSCLITDALWYFAQSVADSLNLRRLVLMTSSLFNFHAHVSLPQFDELGYLDPDDKTRLEEQASGFPMLKVKDIKSAYSNWQILKEILGKMIKQTKASSGVIWNSFKELEESELETVIREIPAPSFLIPLPKHLTASSSSLLDHDRTVFQWLDQQPPSSVLYVSFGSLSEVDEKDFLEIARGLVDSKQSFLWVVRPGFVKGSTWVEPLPDGFLGERGRIVKWVPQQEVLAHPAIGAFWTHSGWNSTLESVCEGVPMIFSDCGLDQMLNARYMSDVLKVGVYLENGWERGEIARAIRRVMVDEEGEYIRQNARVLKQKADVSLMKGGSSYESLESLVSYISSL
B5: UGT76G1var87: UGT76G1 variant, mutations S241I_L243A_V300A_F314S_N409R (protein, UniProt Q6VAB4 1-458, looked up, variant S241I L243A V300A F314S N409R)
UDP-glycosyltransferase 76G1: MENKTETTVRRRRRIILFPVPFQGHINPILQLANVLYSKGFSITIFHTNFNKPKTSNYPHFTFRFILDNDPQDERISNLPTHGPLAGMRIPIINEHGADELRRELELLMLASEEDEEVSCLITDALWYFAQSVADSLNLRRLVLMTSSLFNFHAHVSLPQFDELGYLDPDDKTRLEEQASGFPMLKVKDIKSAYSNWQILKEILGKMIKQTKASSGVIWNSFKELEESELETVIREIPAPIFAIPLPKHLTASSSSLLDHDRTVFQWLDQQPPSSVLYVSFGSTSEVDEKDFLEIARGLADSKQSFLWVVRPGSVKGSTWVEPLPDGFLGERGRIVKWVPQQEVLAHGAIGAFWTHSGWNSTLESVCEGVPMIFSDFGLDQPLNARYMSDVLKVGVYLENGWERGEIARAIRRVMVDEEGEYIRQNARVLKQKADVSLMKGGSSYESLESLVSYISSL
B6: UGT76G1var90: UGT76G1 variant, mutations E231A_S241I_S274G_Y397Q_Q425E (protein, UniProt Q6VAB4 1-458, looked up, variant E231A S241I S274G Y397Q Q425E)
UDP-glycosyltransferase 76G1: MENKTETTVRRRRRIILFPVPFQGHINPILQLANVLYSKGFSITIFHTNFNKPKTSNYPHFTFRFILDNDPQDERISNLPTHGPLAGMRIPIINEHGADELRRELELLMLASEEDEEVSCLITDALWYFAQSVADSLNLRRLVLMTSSLFNFHAHVSLPQFDELGYLDPDDKTRLEEQASGFPMLKVKDIKSAYSNWQILKEILGKMIKQTKASSGVIWNSFKELEESELATVIREIPAPIFLIPLPKHLTASSSSLLDHDRTVFQWLDQQPPGSVLYVSFGSTSEVDEKDFLEIARGLVDSKQSFLWVVRPGFVKGSTWVEPLPDGFLGERGRIVKWVPQQEVLAHGAIGAFWTHSGWNSTLESVCEGVPMIFSDFGLDQPLNARYMSDVLKVGVQLENGWERGEIANAIRRVMVDEEGEYIRENARVLKQKADVSLMKGGSSYESLESLVSYISSL
B7: UGT76G1var89: UGT76G1 variant, mutations F41L_E229A_E231A_F265L_P272A (protein, UniProt Q6VAB4 1-458, looked up, variant F41L E229A E231A F265L P272A)
UDP-glycosyltransferase 76G1: MENKTETTVRRRRRIILFPVPFQGHINPILQLANVLYSKGLSITIFHTNFNKPKTSNYPHFTFRFILDNDPQDERISNLPTHGPLAGMRIPIINEHGADELRRELELLMLASEEDEEVSCLITDALWYFAQSVADSLNLRRLVLMTSSLFNFHAHVSLPQFDELGYLDPDDKTRLEEQASGFPMLKVKDIKSAYSNWQILKEILGKMIKQTKASSGVIWNSFKELEESALATVIREIPAPSFLIPLPKHLTASSSSLLDHDRTVLQWLDQQAPSSVLYVSFGSTSEVDEKDFLEIARGLVDSKQSFLWVVRPGFVKGSTWVEPLPDGFLGERGRIVKWVPQQEVLAHGAIGAFWTHSGWNSTLESVCEGVPMIFSDFGLDQPLNARYMSDVLKVGVYLENGWERGEIANAIRRVMVDEEGEYIRQNARVLKQKADVSLMKGGSSYESLESLVSYISSL
B8: UGT76G1var86: UGT76G1 variant, mutations E224A_T284L_V396F_Y397E_I407V (protein, UniProt Q6VAB4 1-458, looked up, variant E224A T284L V396F Y397E I407V)
UDP-glycosyltransferase 76G1: MENKTETTVRRRRRIILFPVPFQGHINPILQLANVLYSKGFSITIFHTNFNKPKTSNYPHFTFRFILDNDPQDERISNLPTHGPLAGMRIPIINEHGADELRRELELLMLASEEDEEVSCLITDALWYFAQSVADSLNLRRLVLMTSSLFNFHAHVSLPQFDELGYLDPDDKTRLEEQASGFPMLKVKDIKSAYSNWQILKEILGKMIKQTKASSGVIWNSFKALEESELETVIREIPAPSFLIPLPKHLTASSSSLLDHDRTVFQWLDQQPPSSVLYVSFGSLSEVDEKDFLEIARGLVDSKQSFLWVVRPGFVKGSTWVEPLPDGFLGERGRIVKWVPQQEVLAHGAIGAFWTHSGWNSTLESVCEGVPMIFSDFGLDQPLNARYMSDVLKVGFELENGWERGEVANAIRRVMVDEEGEYIRQNARVLKQKADVSLMKGGSSYESLESLVSYISSL
B9: UGT76G1var84: UGT76G1 variant, mutations F22L_Q266S_F314S_A352G_S357C (protein, UniProt Q6VAB4 1-458, looked up, variant F22L Q266S F314S A352G S357C)
UDP-glycosyltransferase 76G1: MENKTETTVRRRRRIILFPVPLQGHINPILQLANVLYSKGFSITIFHTNFNKPKTSNYPHFTFRFILDNDPQDERISNLPTHGPLAGMRIPIINEHGADELRRELELLMLASEEDEEVSCLITDALWYFAQSVADSLNLRRLVLMTSSLFNFHAHVSLPQFDELGYLDPDDKTRLEEQASGFPMLKVKDIKSAYSNWQILKEILGKMIKQTKASSGVIWNSFKELEESELETVIREIPAPSFLIPLPKHLTASSSSLLDHDRTVFSWLDQQPPSSVLYVSFGSTSEVDEKDFLEIARGLVDSKQSFLWVVRPGSVKGSTWVEPLPDGFLGERGRIVKWVPQQEVLAHGAIGGFWTHCGWNSTLESVCEGVPMIFSDFGLDQPLNARYMSDVLKVGVYLENGWERGEIANAIRRVMVDEEGEYIRQNARVLKQKADVSLMKGGSSYESLESLVSYISSL

Assay: Directed evolution of UGT76G1, conversion of Rebaudioside D to Rebaudioside M (round 1)
Type: biochemical
Details: 0.5 mM Rebaudioside D, 2.5 mM UDP-Glucose, 100 μL fresh lysate, 30° C., pH 7.2
Procedure, shortened: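 Conversion to Reb M and initial rate were measured by HPLC with CAD at 2, 4, 7 and 24 h, with reactions run at 30° C in 50 mM phosphate pH 7.2 containing 0.5 mM Reb D, 2.5 mM UDP-glucose and 3 mM MgCl2. Enzyme source: fresh lysates of E. coli BL21(DE3) expressing 3-5-mutation UGT76G1 variants.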

In order of rising “Conversion Reb D to Reb M after 24 h (%)” value:
1. B1  0.5%
2. B3  0.5%
3. B7  1.2%
4. B9  1.2%
5. B2  1.6%
6. B8  1.6%
7. B4  1.8%
8. B6  34.5%
9. B5  35.7%

In order of falling “initial rate (Reb M area/min)” value:
1. B5  2.1E+07 Reb M area/min
2. B6  1.9E+07 Reb M area/min
3. B3  1.8E+06 Reb M area/min
4. B4  4.0E+05 Reb M area/min
5. B2  3.8E+05 Reb M area/min
6. B8  3.8E+05 Reb M area/min
7. B9  2.3E+05 Reb M area/min
8. B7  2.1E+05 Reb M area/min
9. B1  4.3E+04 Reb M area/min
